1 molecule from PMC12556795, “Intrinsically disordered cytoplasmic tail in netrin receptor DCC binds the large ribosomal subunit to inhibit translation” (The Journal of Biological Chemistry, 2025) can be followed below.

This experiment addresses Ribosomal protein eL5/uL18 (H. sapiens rpL5) (H. sapiens, UniProt P46777 1-297). Description: NMR titration; 15N-1H HSQC at 25 °C, 35 uM 15N WT N29+P1 or 80 uM KRK→AAA N29+P1 with unlabelled rpL5 at a 1:1 ratio, phosphate buffer pH 6.4 with 5% v/v glycerol; chemical shift perturbations and peak disappearance. To be noted: both partners purified.

Where no end group is shown, it is not given here.

B1: DCC C-tail N29+P1 protein (residues 1121-1167) (domain or fragment)
chain: CTRRSSAQQRKKRATHSAGKRKGSQKDLRPPDLWIHHEEMEMKNIEK
modifications: also: Cy5 label via maleimide (MST only), 15N-labelled (NMR only)
notes: Residues 1121-1122 were included to give a terminal cysteine for labelling; also called WT N29+P1; DCC N29-P1; source: E. coli LOBSTR-BL21(DE3), purified (Ni-NTA, Superdex 75)
As to B1, the binding result is on record as “binds”.
